Data on two molecules can be found in paper doi:10.1101/2025.05.16.654284 (bioRxiv, 2025).

This experiment addresses T1, YbbP (E. coli, UniProt P77504 1-804).
T1 sequence: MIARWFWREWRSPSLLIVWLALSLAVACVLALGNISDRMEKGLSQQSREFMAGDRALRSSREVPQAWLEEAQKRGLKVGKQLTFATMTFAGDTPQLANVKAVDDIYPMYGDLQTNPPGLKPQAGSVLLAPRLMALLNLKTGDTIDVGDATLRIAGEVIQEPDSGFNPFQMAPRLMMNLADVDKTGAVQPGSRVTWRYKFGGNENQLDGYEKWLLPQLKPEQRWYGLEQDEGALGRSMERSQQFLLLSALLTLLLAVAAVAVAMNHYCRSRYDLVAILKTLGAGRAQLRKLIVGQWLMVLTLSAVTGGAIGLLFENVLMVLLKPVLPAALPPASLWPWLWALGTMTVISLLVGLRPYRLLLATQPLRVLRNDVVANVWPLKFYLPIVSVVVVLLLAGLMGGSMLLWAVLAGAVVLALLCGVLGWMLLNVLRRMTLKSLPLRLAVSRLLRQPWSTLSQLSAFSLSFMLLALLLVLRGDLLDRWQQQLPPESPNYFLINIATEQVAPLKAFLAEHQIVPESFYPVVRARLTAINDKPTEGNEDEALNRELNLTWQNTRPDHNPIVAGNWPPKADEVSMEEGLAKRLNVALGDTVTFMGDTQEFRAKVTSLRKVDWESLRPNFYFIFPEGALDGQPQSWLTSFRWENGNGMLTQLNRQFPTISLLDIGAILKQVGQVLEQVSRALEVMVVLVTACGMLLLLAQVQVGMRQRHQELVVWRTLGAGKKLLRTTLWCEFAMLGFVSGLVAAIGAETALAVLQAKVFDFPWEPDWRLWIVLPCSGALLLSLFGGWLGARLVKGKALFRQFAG
Kind of experiment: cryo-EM structure.

B1: YbbA (natural protein, E. coli)
chain: MPAENIVEVHHLKKSVGQGEHELSILTGVELVVKRGETIALVGESGSGKSTLLAILAGLDDGSSGEVSLVGQPLHNMDEEARAKLRAKHVGFVFQSFMLIPTLNALENVELPALLRGESSAESRNGAKALLEQLGLGKRLDHLPAQLSGGEQQRVALARAFNGRPDVLFADEPTGNLDRQTGDKIADLLFSLNREHGTTLIMVTHDLQLAARCDRCLRLVNGQLQEEA
The stoichiometry N is the number of molecules, sites or subunits per partner or assembly. With B1, the “stoichiometry N” value is 2.

B2: TesA Ser36Ala (enzyme, E. coli, UniProt P0ADA1 27-208, looked up)
chain: ADTLLILGDALSAGYRMSASAAWPALLNDKWQSKTSVVNASISGDTSQQGLARLPALLKQHQPRWVLVELGGNDGLRGFQPQQTEQTLRQILQDVKAANAEPLLMQIRLPANYGRRYNEAFSAIYPKLAKEFDVPLLPFFMEEVYLKPQWMQDDGIHPNRDAQPFIADWMAKQLQPLVNHDS
As to B2, the “stoichiometry N” value was determined as 1.
